Consider 2 molecules from paper PMC4840364 (Scientific Reports, 2016).

Changes are numbered by the printed parent chain.

The assay deals with T1, glycoprotein Ibα (GPIbα) on human platelets (Homo sapiens, UniProt P07359).
T1 construct: human platelet glycoprotein Ibα, endogenous on platelets; On platelets GPIbα stands in the GPIb-IX complex with GPIbβ and GPIX; also called full length GPIbα expressed on the cell surface; source: endogenous, on human platelets
Description: flow cytometry on cells; human platelets (1.5 x 10^6 cells/well) incubated with Fab fragments at room temperature for 20 min, FITC-conjugated goat anti-mouse IgG, MFI of 10,000 cells. The settings on record: one partner purified.

B1: wild-type 5G6 Fab fragment (recombinant) (Fab, V domains shown)
VH: QVTLKESGPGILQPSQTLSLTCSFSGFSLSTSNMGVVWIRQPSGKGLEWLLHILWNDGKFYNPALKSRLTISKDTYNNQVFLKIANVDTADTATYYCARLFTTTTSGYFDVWGAGTTVTVSS
VL: DIQMTQSPASLSASVGETVTITCRASGNIYNYLAWYQQKQGKSPQLLVYNAKTLADGVPSRFSGSGSGTQYSLKINSLQPEDFGSYFCQHFWDTPWTFGGGTKLEIK
notes: heavy chain of 5G6 Fab, as the heavy chain of m1; light chain of 5G6 Fab, as the light chain of m1; cDNA of both chains cloned from 5G6 hybridoma mRNA into pcDNA3.1 with a C-terminal 6xHis tag; also called 5G6-WT; source: CHO cells, transiently cotransfected, purified from medium (Ni-NTA, Superdex 200)
B1: the binding result is recorded as “binds”.

B2: mutant 5G6 Fab 5G6-M2 (Fab, V domains shown)
VH: B1 VH with T102A, T103A, T104A, T105A
VL: B1 VL with D93A
notes: as the heavy chain of m2 with Thr102-105 of CDRH3 replaced with Ala; as the light chain of m2 with Asp93 of CDRL3 replaced with Ala; five point mutations in the interface
In the case of B2, the binding result is reported as “no binding”.
